These results are taken from patent US20250304936A1 (KYUNGPOOK NATIONAL UNIVERSITY INDUSTRY ACADEMIC COOPERATION …, published 2025).

This data set concerns the molecule itself. Nature of the data set: size exclusion chromatography (Superdex 200 Increase 10/300 GL); self-association of the chain: 92.1 kDa measured against 40.9 kDa calculated for the monomer. The method, then:
(A) Molecular sieve chromatography profiling of purified GH117A α-NABH was performed using a Superdex 200 Increase 10/300 GL column equilibrated with 40 mM Tris-HCl (pH 8.0) containing 150 mM NaCl. At this time, a protein solution containing 500 μg GH117A α-NABH was injected into the column, and the column was eluted at 4° C. at a flow rate of 0.3 mL/min, and the protein elution profile was monitored by measuring absorbance at 280 nm. […]
Molecular sieve chromatography was performed using a Superdex 200 Increase 10/300 GL column (GE Healthcare) equilibrated with 40 mM tris-HCl (pH 8.0) and 150 mM NaCl. Purified GH117A α-NABH (0.5 mg/0.5 mL) was injected into the column, and molecular sieve chromatography was performed under conditions of 4° C. and a flow rate of 0.3 mL/min, and protein elution was measured at a wavelength of 280 nm. For the column, a standard curve of retention volume versus protein molecular weight was obtained using size markers such as ferritin (440 kDa), aldolase (158 kDa), ovalbumin (44 kDa), and ribonuclease A (13.7 kDa), and molecular weight of the purified GH117A α-NABH was measured using the curve.

B1: recombinant His-tagged GH117A α-neoagarobiose hydrolase (α-NABH) of Cellvibrio sp. KY-GH-1 (enzyme)
chain: MGDLPEKKLSKASLRAIERGYDQKNADWVFEFDVKPLGGDFAYQEGVIRRDPSAVIFVDGLYHVWYTKGEGETVGFGSANPEDKVFPWDKTEVWHATSSDGWDWKEQGAAIVAGAPGSYDDRAVFTPEVLAHEGRYYLVYQTVKAPYLNRTKECIALASADSPYGPWVKSPAPILTPADNGVWDGDEDNRFNCKIRGDFDSHKVHDPCLMFYQNKFYLYYKGEIMGERMNFGGREIKHGVAIADKIEGPYVKSEFNPITNSGHEVVVWHVNGGIASLLTTDGPEKNTCQWSPDGINFDIMAHIKGAPEALGLYRDPAADIQDPMAGLAWGLCHKYDSSWNWNYICRFKTRRQILDPGTFQNVAS
notes: The entry under measurements means that the chain associates with itself; also called GH117A α-NABH; GH117 A α-NABH; not shown: C-terminal 6x His tag from vector pET-30a (cloned NdeI/XhoI)
Take B1: the binding result is “binds”.
